The results in this text go back to paper PMC4794775.

In test [1] the target is RopB-CTD R226Q (Streptococcus pyogenes (group A Streptococcus) strain MGAS10870). In words: SEC.
The target of test [2] is RopB-CTD R226A (Streptococcus pyogenes (group A Streptococcus) strain MGAS10870). The experiment in a line: SEC.
In test [3] the target is full-length RopB (Streptococcus pyogenes (group A Streptococcus) strain MGAS10870).
The target in test [4] is RopB-CTD I255A (Streptococcus pyogenes (group A Streptococcus) strain MGAS10870). In words: SEC.
Test [5] has as its target RopB C-terminal domain (RopB-CTD, amino acids 56-280), wild type (Streptococcus pyogenes (group A Streptococcus) strain MGAS10870). The experiment in a line: SEC.
Test [6] addresses RopB-CTD C222A (Streptococcus pyogenes (group A Streptococcus) strain MGAS10870). The experiment in a line: SEC.
Test [7] has as its target RopB-CTD Y224H (Streptococcus pyogenes (group A Streptococcus) strain MGAS10870). The experiment in a line: SEC.
Test [8] has as its target RopB-CTD Y224A (Streptococcus pyogenes (group A Streptococcus) strain MGAS10870). The experiment in a line: SEC.
In test [9] the target is RopB-CTD C227Y (Streptococcus pyogenes (group A Streptococcus) strain MGAS10870). The experiment in a line: SEC.

In turn, RopB-CTD R226Q (domain or fragment) yielded a stoichiometry N in test [1] of 2.
For the substance RopB-CTD R226A (domain or fragment), the stoichiometry N in [2] worked out at 2.
Turning to full-length RopB (natural protein), in [3], the stoichiometry N was above 6.
Turning to RopB-CTD I255A (domain or fragment), the stoichiometry N in test [4] was 2.
In turn, “RopB C-terminal domain (RopB-CTD, amino acids 56-280), wild type (domain or fragment)” displayed a stoichiometry N in test [5] of 2.
In [6], RopB-CTD C222A (domain or fragment) displayed a stoichiometry N of 2.
RopB-CTD Y224H (domain or fragment) displayed a stoichiometry N in test [7] of 2.
In [8], RopB-CTD Y224A (domain or fragment) returned a stoichiometry N of 2.
RopB-CTD C227Y (domain or fragment) came in with a stoichiometry N in [9] of 2.
